# According to paper PMC5769772:
# B1: I-8 G4m (ssRNA)
# RNA: GCUUUGAUGAUGAAAUGAUGCUAUGUGG
# B2: I-8 (structured_RNA)
# RNA: GCUUUGGUGGUGGAAUGGUGCUAUGUGG
# B3: Biotin-I-8-wt (structured_RNA)
# RNA: GCUUUGGUGGUGGAAUGGUGCUAUGUGG
# How the values were obtained:
# [1] = target: T1, hnRNPF (recombinant) (human, UniProt P52597 1-415); experiment: EMSA
# T1 sequence: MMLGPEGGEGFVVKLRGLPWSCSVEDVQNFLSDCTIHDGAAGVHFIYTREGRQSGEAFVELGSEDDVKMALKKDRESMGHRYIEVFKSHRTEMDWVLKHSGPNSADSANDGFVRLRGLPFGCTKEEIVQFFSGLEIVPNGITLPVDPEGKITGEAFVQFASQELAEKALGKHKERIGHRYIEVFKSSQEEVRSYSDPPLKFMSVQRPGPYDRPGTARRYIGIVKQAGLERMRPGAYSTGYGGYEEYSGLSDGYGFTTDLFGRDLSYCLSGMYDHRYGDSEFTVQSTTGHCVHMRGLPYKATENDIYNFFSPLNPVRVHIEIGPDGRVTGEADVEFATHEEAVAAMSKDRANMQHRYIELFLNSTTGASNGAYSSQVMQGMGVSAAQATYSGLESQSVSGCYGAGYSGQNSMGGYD
# [2] = target: T1, hnRNPF (recombinant); experiment: EMSA; remark: listed apart in the source
# [3] = target: T1, hnRNPF (recombinant); experiment: pull-down
binder,measurement,setting,value
B1,binding result,[1],no binding
B2,binding result,[2],binds
B3,binding result,[3],binds
